± gives the standard deviation of the averaged measurements.
B1: library; a variant is named by its letters at N, in order (parent)
chain: GCUGUCACCGAGAAACUGUGAAGUAUAUCUUAAACCUGGGCACUUAAAAGAUAUAUGGAGUUAGUAGUGCAACCUGCUCGGUCUGAUGAGUCCNNNNNNGGACGAAACAGC

Columns and labels:
[1] = variants of: B1; experiment: FACS-Seq fitted mean relative fluorescence mCherry/BFP without ligand (log10 relative fluorescence); HEK293T; ligand: cyclic di-GMP (c-di-GMP-II aptamer); higher = higher reporter protein expression; conditions: ligand present: no
Method in brief: (§1)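 An mCherry reporter containing the ribozyme switch and an EF1α-BFP marker were introduced by lentivirus into HEK293T libraries. Cells were enriched, incubated 48 h with or without ligand, sorted into 6 bins by mCherry/BFP, and bin genomic DNA was PCR-amplified, barcoded and sequenced on MiSeq. Fluorescence represents the normalized fitted normal mean of the bin counts. Fitting was done on log10(mCherry/BFP), scaling to five spiked-in control ribozymes.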

[2] = variants of: B1; experiment: normalized RNA/DNA level without ligand (relative to sTRSVctl = 100) (log10 (% of sTRSVctl)); HEK293T; ligand: cyclic di-GMP (c-di-GMP-II aptamer); higher = less ribozyme self-cleavage, higher mRNA level; conditions: reporter: mCherry (pCS4076), ligand present: no
Method in brief: (§2)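 RNA level was computed as RNA reads over DNA reads divided by a spiked-in non-cleaving sequence or by the top sequences, then scaled and log-transformed. Scaling was ×100 with log10, the top group was 25 sequences, and the threshold was ≥100 DNA reads. The reads came from HEK293T cells transfected at 4 µg per 6-well well with ribozyme switch library plasmids (mCherry, or eGFP in some ligand experiments). Total RNA was extracted with EDTA 72 h after transfection, with any ligand added 1 h before it.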

[3] = variants of: B1; experiment: FACS-Seq fitted mean relative fluorescence mCherry/BFP with ligand (log10 relative fluorescence); HEK293T; ligand: cyclic di-GMP (c-di-GMP-II aptamer); ligand concentration (+) FACS-Seq: 1 mM; higher = higher reporter protein expression; conditions: ligand present: yes
Method in brief: as §1

[4] = variants of: B1; experiment: normalized RNA/DNA level with ligand (relative to sTRSVctl = 100) (log10 (% of sTRSVctl)); HEK293T; ligand: cyclic di-GMP (c-di-GMP-II aptamer); ligand concentration (+) RNA-Seq: 1 mM; higher = less ribozyme self-cleavage, higher mRNA level; conditions: reporter: mCherry (pCS4076), ligand present: yes
Method in brief: as §2

Variant | FACS-Seq fitted mean (log10) [1] | normalized RNA/DNA level without ligand (log10) [2] | FACS-Seq fitted mean (log10) [3] | normalized RNA/DNA level with ligand (log10) [4]
GACGGA | -0.135 ± 0.078 | 1.47 ± 0.078 | 0.0761 ± 0.072 | 1.63 ± 0.076
UAGAUG | 0.0515 ± 0.09 | 1.53 ± 0.057 | 0.322 ± 0.085 | 1.75 ± 0.089
CCGGUA | -0.505 ± 0.068 | 1.36 ± 0.12 | -0.223 ± 0.059 | 1.61 ± 0.087
ACUCUU | -0.426 ± 0.095 | 1.636 ± 0.0073 | -0.112 ± 0.0059 | 1.83 ± 0.11
UGAUAC | -0.0926 ± 0.067 | 1.69 ± 0.02 | 0.197 ± 0.054 | 1.8 ± 0.12
ACAGUU | -0.579 ± 0.027 | 1.32 ± 0.13 | -0.312 ± 0.09 | 1.5 ± 0.073
GCACAU | -0.28 ± 0.043 | 1.47 ± 0.055 | -0.00874 ± 0.0028 | 1.69 ± 0.11
CGGGGA | -0.489 ± 0.015 | 1.54 ± 0.11 | -0.28 ± 0.044 | 1.64 ± 0.093
AGCGUG | -0.586 ± 0.017 | 1.6 ± 0.017 | -0.279 ± 0.04 | 1.78 ± 0.14
CAUCAA | -0.3769 ± 0.0032 | 1.32 ± 0.035 | -0.0581 ± 0.076 | 1.57 ± 0.057
GAUAAU | -0.142 ± 0.21 | 1.59 ± 0.068 | 0.0798 ± 0.079 | 1.75 ± 0.075
CUAACU | -0.381 ± 0.006 | 1.59 ± 0.025 | -0.0873 ± 0.0047 | 1.74 ± 0.1
AUAGGG | -0.534 ± 0.02 | 1.41 ± 0.12 | -0.187 ± 0.073 | 1.59 ± 0.15
UCGCGA | -0.247 ± 0.071 | 1.668 ± 0.0022 | 0.0917 ± 0.061 | 1.8 ± 0.1
GUGAUU | -0.56 ± 0.007 | 1.621 ± 0.01 | -0.311 ± 0.025 | 1.79 ± 0.088
CCCGGU | -0.55 ± 0.093 | 1.724 ± 0.003 | -0.114 ± 0.093 | 1.87 ± 0.11
CGCCAU | -0.339 ± 0.042 | 1.5 ± 0.12 | -0.0661 ± 0.036 | 1.69 ± 0.078
UUGACA | -0.91 ± 0.064 | 1.701 ± 0.0052 | -0.508 ± 0.077 | 1.83 ± 0.14
CCUUCU | -0.619 ± 0.0079 | 1.6166 ± 0.0015 | -0.341 ± 0.038 | 1.8 ± 0.063
UGUAAA | 0.0683 ± 0.13 | 1.72 ± 0.019 | 0.3702 ± 0.0013 | 1.85 ± 0.086
CUGCGG | 0.154 ± 0.06 | 1.82 ± 0.042 | 0.241 ± 0.03 | 1.84 ± 0.087
ACGAGA | -0.604 ± 0.02 | 1.29 ± 0.12 | -0.453 ± 0.01 | 1.45 ± 0.067
CAAAAA | -0.703 ± 0.047 | 1.21 ± 0.087 | -0.444 ± 0.071 | 1.46 ± 0.079
AGUAAC | -0.0857 ± 0.11 | 1.595 ± 0.012 | 0.271 ± 0.023 | 1.79 ± 0.076

Variant | FACS-Seq fitted mean (log10) [1] | normalized RNA/DNA level without ligand (log10) [2] | FACS-Seq fitted mean (log10) [3] | normalized RNA/DNA level with ligand (log10) [4]
GUUCCA | -0.877 ± 0.03 | 1.65 ± 0.022 | -0.674 ± 0.016 | 1.81 ± 0.12
GAACGA | -0.276 ± 0.045 | 1.46 ± 0.1 | -0.0281 ± 0.066 | 1.64 ± 0.072
AAAGGA | -0.691 ± 0.009 | 1.31 ± 0.13 | -0.5317 ± 0.0025 | 1.47 ± 0.11
AAAGGG | -0.506 ± 0.051 | 1.37 ± 0.078 | -0.2804 ± 0.00041 | 1.59 ± 0.077
CAGCUA | -0.432 ± 0.009 | 1.37 ± 0.077 | -0.148 ± 0.079 | 1.56 ± 0.076
UCGAUU | -0.335 ± 0.14 | 1.55 ± 0.074 | 0.0883 ± 0.079 | 1.74 ± 0.17
ACUGCU | -0.0841 ± 0.15 | 1.616 ± 0.01 | 0.249 ± 0.013 | 1.8 ± 0.14
AAUAAA | -0.411 ± 0.041 | 1.47 ± 0.097 | -0.166 ± 0.054 | 1.69 ± 0.069
AACGCC | -0.235 ± 0.048 | 1.75 ± 0.022 | 0.192 ± 0.046 | 1.9 ± 0.15
CGUUAU | -0.444 ± 0.047 | 1.42 ± 0.13 | -0.148 ± 0.06 | 1.61 ± 0.081
GCAUCU | -1.08 ± 0.08 | 1.614 ± 0.0091 | -0.903 ± 0.025 | 1.79 ± 0.094
GUGGUA | -0.522 ± 0.03 | 1.58 ± 0.059 | -0.23 ± 0.015 | 1.72 ± 0.08
CCGAGA | -0.211 ± 0.078 | 1.46 ± 0.11 | 0.0834 ± 0.071 | 1.66 ± 0.086
AAUAGU | -0.33379 ± 0.00027 | 1.6 ± 0.034 | 0.0812 ± 0.061 | 1.74 ± 0.11
GCAGAA | -0.671 ± 0.025 | 1.27 ± 0.082 | -0.367 ± 0.017 | 1.5 ± 0.13
ACGGGA | -0.467 ± 0.019 | 1.42 ± 0.16 | -0.161 ± 0.068 | 1.58 ± 0.075
CCGCAC | -0.121 ± 0.13 | 1.6849 ± 0.0016 | 0.131 ± 0.16 | 1.85 ± 0.11
UCGGCU | -0.103 ± 0.0013 | 1.77 ± 0.036 | 0.114 ± 0.004 | 1.88 ± 0.089
UCGGCA | -0.241 ± 0.26 | 1.65 ± 0.02 | -0.0817 ± 0.0018 | 1.81 ± 0.12
GUUGAC | -0.0708 ± 0.036 | 1.658 ± 0.008 | 0.228 ± 0.1 | 1.79 ± 0.099
CUCUUA | -0.241 ± 0.082 | 1.46 ± 0.067 | -0.0535 ± 0.053 | 1.65 ± 0.11
CGGCGC | -0.498 ± 0.2 | 1.8 ± 0.044 | -0.494 ± 0.095 | 1.94 ± 0.069
CUCCUA | -0.0767 ± 0.066 | 1.44 ± 0.12 | 0.0398 ± 0.14 | 1.68 ± 0.14
GACCUA | -0.232 ± 0.041 | 1.621 ± 0.011 | 0.101 ± 0.016 | 1.77 ± 0.11

Variant | FACS-Seq fitted mean (log10) [1] | normalized RNA/DNA level without ligand (log10) [2] | FACS-Seq fitted mean (log10) [3] | normalized RNA/DNA level with ligand (log10) [4]
AGUGUC | -0.2695 ± 0.0013 | 1.62 ± 0.071 | 0.0884 ± 0.21 | 1.76 ± 0.052
GCCGAA | -0.291 ± 0.03 | 1.45 ± 0.11 | -0.0327 ± 0.018 | 1.72 ± 0.091
ACGUGA | -0.228 ± 0.016 | 1.33 ± 0.052 | -0.0284 ± 0.061 | 1.54 ± 0.096
CUACGA | -0.199 ± 0.061 | 1.62 ± 0.038 | 0.0797 ± 0.066 | 1.79 ± 0.086
CAGACU | -0.00398 ± 0.14 | 1.584 ± 0.0086 | 0.149 ± 0.04 | 1.72 ± 0.1
GUCGCU | -0.798 ± 0.048 | 1.683 ± 0.0047 | -0.654 ± 0.068 | 1.87 ± 0.065
GUAUGA | -0.487 ± 0.16 | 1.42 ± 0.092 | -0.189 ± 0.072 | 1.67 ± 0.081
CACAGU | -0.189 ± 0.13 | 1.74 ± 0.045 | 0.105 ± 0.062 | 1.85 ± 0.064
AAAAGC | 0.0679 ± 0.01 | 1.58 ± 0.045 | 0.227 ± 0.045 | 1.73 ± 0.089
AGCACG | -0.192 ± 0.0049 | 1.61 ± 0.036 | 0.065 ± 0.026 | 1.77 ± 0.13
CCAGCA | -0.507 ± 0.13 | 1.73 ± 0.021 | -0.329 ± 0.02 | 1.86 ± 0.098
AAGAGA | -0.637 ± 0.058 | 1.33 ± 0.078 | -0.296 ± 0.066 | 1.54 ± 0.094
UAAUAG | -0.126 ± 0.087 | 1.667 ± 0.0048 | -0.0799 ± 0.024 | 1.83 ± 0.099
AUUGGA | -0.489 ± 0.028 | 1.45 ± 0.099 | -0.102 ± 0.071 | 1.62 ± 0.1
AACUGG | -0.198 ± 0.17 | 1.59 ± 0.049 | 0.149 ± 0.048 | 1.77 ± 0.17
CUUCAA | -0.32 ± 0.059 | 1.43 ± 0.099 | 0.136 ± 0.056 | 1.64 ± 0.083
CUUCAU | -0.264 ± 0.079 | 1.58 ± 0.044 | -0.136 ± 0.066 | 1.75 ± 0.12
CAGUAU | -0.4929 ± 0.0046 | 1.4 ± 0.1 | -0.197 ± 0.0062 | 1.58 ± 0.17
CUAAAU | -0.443 ± 0.034 | 1.5 ± 0.1 | -0.0872 ± 0.068 | 1.69 ± 0.044
UCGGAG | -0.311 ± 0.011 | 1.54 ± 0.088 | 0.0865 ± 0.03 | 1.72 ± 0.08
UCGGAA | -0.484 ± 0.069 | 1.34 ± 0.14 | -0.286 ± 0.048 | 1.49 ± 0.11
CAAGAA | -0.432 ± 0.1 | 1.23 ± 0.12 | -0.059 ± 0.057 | 1.48 ± 0.13
CUCUAU | -0.312 ± 0.034 | 1.61 ± 0.036 | -0.00561 ± 0.064 | 1.77 ± 0.096

Reference: the supplement of paper PMC6757056
